Results reported in patent publication US6855270B2, “Nanoscintillation systems for aqueous-based liquid scintillation counting” (The University of Kentucky Research Foundation, priority 2001, dated 2005).

How the values were obtained:
[1] = particle / droplet size by photon correlation spectroscopy (Coulter N4 Plus); format: physicochemical
Method: To determine the existence of an oil-in-water microemulsion window for the microemulsion precursor, exactly two (2) milligrams of emulsifying wax were weighed accurately into ten separate 7-mL glass vials and melted at 50° C. on a temperature calibrated magnetic hot plate. Water (0.2 μm filtered) was then added (750-1000 μL) to form a homogeneous milky slurry in the stirring water at 50° C. To form the microemulsion precursor, the surfactant polyoxy 20 stearyl ether (100 mM) in water was added (0-250 μL) so that the final surfactant concentration ranged from 0 mM to 25 mM in the ten vials. The microemulsion precursor was then removed from heat (52-54° C.) and allowed to cool to 25° C. while stirring. […] Thus, an apparent microemulsion window was defined. One hundred (100) μL of each cooled system was taken and diluted with 900 μL water. The particle size of the diluted solid nanoparticles was determined using a Coulter N4 Plus Sub-Micron Particle Sizer at 20° C. by scattering light at 90° for 120 seconds. The particle sizes of systems with no surfactant added could not be determined since the systems contained precipitates that were greater than 3000 nm in diameter. […] To determine if the measured droplet sizes in either the microemulsion nanotemplate or the cured solid nanoparticles were due to the presence of surfactant micelles, samples were made as described above with no emulsifying wax and with final surfactant concentrations ranging from 0 mM to 100 mM in water. […] It is likely that the relatively heterogeneous nature of the polymeric surfactant makes the determination of its CMC difficult using conventional techniques. Photon correlation spectroscopy, using a Coulter N4 Plus Submicron Particle Sizer, was used to determine the existence and the size of the surfactant micelles.
Preparation of polyoxyethylene 2 stearyl ether nanoparticles. Three separate samples of polyoxyethylene 2 stearyl ether nanoparticles were engineered using the following process. Polyoxyethylene 2 stearyl ether (2 mg) was melted at 50-55° C. and dispersed in 970 microliters of water at the same temperature. Thirty microliters of solution of Tween 80 (10% v/v in water) was added to produce a clear oil-in-water microemulsion at approximately 55° C. The oil droplet size of liquid polyoxyethylene 2 stearyl ether was measured by photon correlation spectroscopy to be 22.2±1.8 nanometers at approximately 55° C. Polyoxyethylene 2 stearyl ether nanoparticles were cured by three different methods as follows: Method A) cooling of the undiluted oil-in-water microemulsion at 55° C. to room temperature while stirring, Method B) cooling of the oil-in-water microemulsion at 55° C. by placing undiluted in a refrigerator at 4° C., and Method C) diluting (1/10) the oil-in-water microemulsion at 55° C. with water at 4° C. […] Further, Method A illustrated a key advantage of simply allowing the oil-in-water microemulsion to cool to room temperature to form useful solid nanoparticles. This method allows for rapid, reproducible, and cost-effective method to engineer useful nanoparticles.
Preparation of Emulsifying Wax nanoparticles. Three separate samples of emulsifying wax nanoparticles were engineered using the following process. Emulsifying wax (2 mg) was melted at 50-55° C. and dispersed in 970 microliters of water at the same temperature. […] The oil droplet size of liquid emulsifying wax was measured by photon correlation spectroscopy to be 24.5±0.4 nanometers at approximately 55° C. […]

[2] = cited from earlier work
[3] = ASF-pal alone in water, 1340 μg/mL

## ASF-pal: Asialofetuin derivatized with about 12 palmitate arms per molecule; ligand
[1]; 200 μg nanoparticles per 1 mL
  effect of added ASF-pal on particle size of cured solid nanoparticles: only a small effect
[1]; ASF-pal alone in water, 67 μg/mL
  size of micelles formed: 3-15 nm
[1]; [3]
  size of larger aggregates formed: 40-300 nm
  size of micelles formed: 3-10 nm

## CC(=O)C=C(C)[O-].CC(=O)C=C(C)[O-].CC(=O)C=C(C)[O-].[Gd+3] [GdAcAc, Gadolinium acetylacetonate]
[1]
  diameter of nanoparticles entrapping GdAcAc: about 50 nanometers

## c1ccc(-c2cnc(-c3ccccc3)o2)cc1 [PPO, 2,5-diphenyloxazole]
[2]
  classification of water solubility: water-insoluble
